Substitutions are numbered along the chain they refer to. Names and notes keep the numbering of the source.

Experiment [1] deals with human PD-L1, full-length, expressed on transfected cells (human) (UniProt Q9NZQ7). As to the kind of experiment: flow cytometry, transfected cells.
In experiment [2] the target is human CD28, full-length, expressed on transfected cells (human) (UniProt P10747). Nature of the experiment: flow cytometry, transfected cells.
In another experiment the target is human PD-L1 (human) (UniProt Q9NZQ7). Nature of the experiment: flow cytometry, PD-L1-transfected cells.
Experiment [3] deals with T1, human ICOS, full length, expressed on cells (human, UniProt Q9Y6W8 21-199).
T1 sequence: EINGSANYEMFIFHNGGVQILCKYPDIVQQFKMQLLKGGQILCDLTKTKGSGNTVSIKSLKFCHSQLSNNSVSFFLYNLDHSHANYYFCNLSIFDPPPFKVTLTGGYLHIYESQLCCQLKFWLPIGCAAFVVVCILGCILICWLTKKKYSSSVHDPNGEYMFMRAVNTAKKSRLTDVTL
As to the kind of experiment: flow cytometry on CHO cells transduced for surface expression of full-length human ICOS; Fc protein 32 pM to 100 nM, PE anti-human IgG, MFI.

For experiment [4], the target named is human CD28, full length, expressed on cells (human) (UniProt P10747). Nature of the experiment: flow cytometry, ECD-Fc on CD28-transfected HEK293 cells.
Experiment [5] addresses human CD28, full length, expressed on cells (human, UniProt P10747 19-220). As to the kind of experiment: flow cytometry of human T cells from blood of treated GVHD mice.
Experiment [6] addresses T2, human CTLA-4 (human, UniProt P16410 36-223).
T2 construct: whole, on cells
Nature of the experiment: flow cytometry, transfected cells; protein from 293.

Experiment [7] has as its target T2, human CTLA-4. As to the kind of experiment: flow cytometry, transfected cells.

T2 sequence (P16410 36-223): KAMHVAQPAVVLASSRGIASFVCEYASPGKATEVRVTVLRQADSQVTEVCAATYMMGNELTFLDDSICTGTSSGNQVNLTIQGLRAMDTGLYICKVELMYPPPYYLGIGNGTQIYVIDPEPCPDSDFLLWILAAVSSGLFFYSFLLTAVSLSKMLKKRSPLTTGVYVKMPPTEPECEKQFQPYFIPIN
Chain of human PD-L1 (human) (Q9NZQ7 19-290): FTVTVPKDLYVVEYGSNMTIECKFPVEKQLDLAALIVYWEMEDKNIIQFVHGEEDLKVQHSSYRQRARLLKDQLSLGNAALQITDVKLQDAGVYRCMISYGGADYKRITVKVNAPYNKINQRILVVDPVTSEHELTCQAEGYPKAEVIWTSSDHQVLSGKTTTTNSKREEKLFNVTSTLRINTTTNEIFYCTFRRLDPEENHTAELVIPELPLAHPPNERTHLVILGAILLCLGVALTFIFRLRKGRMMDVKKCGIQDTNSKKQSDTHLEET
Chain of human PD-L1, full-length, expressed on transfected cells (human) (Q9NZQ7 19-290): as above

Consider “stacked Fc fusion: Domain 1 CD80 WT / Domain 2 ICOSL WT / Fc”, for which, in experiment [1], the MFI was determined as 2660 MFI. Molecule “stacked Fc fusion: Domain 1 ICOSL WT / Domain 2 NKp30 WT / Fc” registered an MFI in experiment [2] of 7920 MFI.

In the experiment with human PD-L1 (human), “stack ICOSL WT IgV / CD80 WT IgV / Fc (Fc fusion)” registered an MFI of 3000 MFI. Molecule “stacked Fc fusion: Domain 1 NKp30 WT / Domain 2 ICOSL WT / Fc” showed an MFI in experiment [2] of 6340 MFI. “stack CD80 WT IgV / ICOSL WT IgV / Fc (Fc fusion)”: in the experiment with human PD-L1 (human), the MFI came out at 1230 MFI.

B1: ICOSL (N52D) (Fc fusion, not shown: a dimerising Fc or GST; small tags and cut ends)
chain: DTQEKEVRAMVGSDVELSCACPEGSRFDLNDVYVYWQTSESKTVVTYHIPQDSSLENVDSRYRNRALMSPAGMLRGDFSLRLFNVTPQDEQKFHCLVLSQSLGFQEVLSVEVTLHVAANFSV
notes: also called ICOSL H79; parental ICOSL only protein
Regarding B1, the “EC50 (read off the curve)” value in experiment [3] is approximately 0.8 nM.

B2: ICOSL (N52H/N57Y/Q100R) (Fc fusion, not shown: a dimerising Fc or GST; small tags and cut ends)
chain: B1 chain with D52H, N57Y, Q100R
notes: also called ICOSL H238; parental ICOSL only protein
Consider B2, for which, in experiment [3], the “EC50 (read off the curve)” value was approximately 0.5 nM.

B3: ICOSL (N52L/N57H/Q100R) (Fc fusion, not shown: a dimerising Fc or GST; small tags and cut ends)
chain: B1 chain with D52L, N57H, Q100R
notes: also called ICOSL H3447; parental ICOSL only protein
B3: in experiment [3], the “EC50 (read off the curve)” value was approximately 0.4 nM.

B4: variant ICOSL ECD-Fc F120S/Y152H/N201S (Fc fusion)
chain: DTQEKEVRAMVGSDVELSCACPEGSRFDLNDVYVYWQTSESKTVVTYHIPQNSSLENVDSRYRNRALMSPAGMLRGDFSLRLFNVTPQDEQKFHCLVLSQSLGFQEVLSVEVTLHVAANSSVPVVSAPHSPSQDELTFTCTSINGYPRPNVHWINKTDNSLLDQALQNDTVFLNMRGLYDVVSVLRIARTPSVNIGCCIESVLLQQNLTVGSQTGNDIGERDKITENPVSTGEKNAATAAAEPKSSDKTHTCPPCPAPELLGGPSVFLFPPKPKDTLMISRTPEVTCVVVDVSHEDPEVKFNWYVDGVEVHNAKTKPCEEQYGSTYRCVSVLTVLHQDWLNGKEYKCKVSNKALPAPIEKTISKAKGQPREPQVYTLPPSREEMTKNQVSLTCLVKGFYPSDIAVEWESNGQPENNYKTTPPVLDSDGSFFLYSKLTVDKSRWQQGNVFSCSVMHEALHNHYTQKSLSLSPGK
With B4, in experiment [4], the CD28 MFI parental ratio (ratio to WT ICOSL) is 0.89.

B5: variant ICOSL ECD-Fc S54F/V193A (Fc fusion)
chain: B4 chain with S54F, S120F, H152Y, V193A, S201N
On to B5, for which, in experiment [4], the CD28 MFI worked out at 16 MFI and the CD28 MFI parental ratio (ratio to WT ICOSL) came out at 0.87.

B6: variant ICOSL IgV-Fc (N52H/N57Y/Q100R) (Fc fusion)
chain: DTQEKEVRAMVGSDVELSCACPEGSRFDLNDVYVYWQTSESKTVVTYHIPQHSSLEYVDSRYRNRALMSPAGMLRGDFSLRLFNVTPQDEQKFHCLVLSRSLGFQEVLSVEVTLHVAANFSVEPKSSDKTHTCPPCPAPEAEGAPSVFLFPPKPKDTLMISRTPEVTCVVVDVSHEDPEVKFNWYVDGVEVHNAKTKPREEQYNSTYRVVSVLTVLHQDWLNGKEYKCKVSNKALPAPIEKTISKAKGQPREPQVYTLPPSRDELTKNQVSLTCLVKGFYPSDIAVEWESNGQPENNYKTTPPVLDSDGSFFLYSKLTVDKSRWQQGNVFSCSVMHEALHNHYTQKSLSLSPG
Turning to B6, the binding result in experiment [5] was “binds”.

B7: Wildtype ICOSL ECD (control of Tables 30C and 30D) (Fc fusion, not shown: a dimerising Fc or GST)
chain: DTQEKEVRAMVGSDVELSCACPEGSRFDLNDVYVYWQTSESKTVVTYHIPQNSSLENVDSRYRNRALMSPAGMLRGDFSLRLFNVTPQDEQKFHCLVLSQSLGFQEVLSVEVTLHVAANFSVPVVSAPHSPSQDELTFTCTSINGYPRPNVYWINKTDNSLLDQALQNDTVFLNMRGLYDVVSVLRIARTPSVNIGCCIENVLLQQNLTVGSQTGNDIGERDKITENPVSTGEKNAAT
As for B7, the MFI with human CTLA-4 [6] was found to be 12100 MFI; with human CTLA-4 [7], 7580 MFI.

The values above are taken from US20230235012A1 (ALPINE IMMUNE SCIENCES, published 2023).
